# Read-outs that look alike come from different tables or passages of the source. Starred links: 1 amine or outer side, 2 acyl side, 3 side chain; linkers in the order of their positions; H or OH if unused. Non-standard residues stand in square brackets, D forms with d. Groups on a side chain read outwards from the residue. Primed or numbered codes have the meaning given here. No end group written: not given here. *: point of attachment. C20 diacid = O=C(O)CCCCCCCCCCCCCCCCCCC(=O)*; C18 diacid = O=C(O)CCCCCCCCCCCCCCCCC(=O)*; γGlu = O=C(O)[C@H](CCC(=O)[*:2])N[*:1]; Stearoyl = CCCCCCCCCCCCCCCCCC(=O)*; Palmitoyl = CCCCCCCCCCCCCCCC(=O)*; αMeF = C[C@](N)(Cc1ccccc1)C(=O)O; (PEG)2 = polyethylene glycol 2; PEG2′ = polyethylene glycol 2; AEEA = NCCOCCOCC(=O)O; Aib = CC(C)(N)C(=O)O
# Legend:
# Assay in all cases: cell-based or functional assay
# [1] = target: T1, human GLP-1 receptor (hGLP-1R) (human, UniProt P43220 24-463)
# [2] = target: T2, human glucagon receptor (hGCGR) (human, UniProt P47871 26-477)
# T2 sequence (P47871 26-477): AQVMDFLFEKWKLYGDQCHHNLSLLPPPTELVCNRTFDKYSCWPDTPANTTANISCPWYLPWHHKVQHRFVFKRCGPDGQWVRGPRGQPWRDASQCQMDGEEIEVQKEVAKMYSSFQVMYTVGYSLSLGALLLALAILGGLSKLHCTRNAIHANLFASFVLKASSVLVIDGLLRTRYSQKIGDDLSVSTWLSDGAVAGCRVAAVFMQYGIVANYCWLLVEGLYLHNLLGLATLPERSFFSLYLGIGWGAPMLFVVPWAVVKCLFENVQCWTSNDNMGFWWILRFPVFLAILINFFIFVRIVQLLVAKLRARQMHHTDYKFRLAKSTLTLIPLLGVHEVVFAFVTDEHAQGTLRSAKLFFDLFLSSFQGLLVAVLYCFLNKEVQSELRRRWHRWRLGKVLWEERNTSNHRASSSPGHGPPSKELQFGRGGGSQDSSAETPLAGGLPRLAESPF
# [3] = target: T1, human GLP-1 receptor (hGLP-1R); remark: listed apart in the source
# [4] = target: T2, human glucagon receptor (hGCGR); remark: listed apart in the source
# [5] = target: T1, human GLP-1 receptor (hGLP-1R); remark: listed apart in the source
# [6] = target: T2, human glucagon receptor (hGCGR); remark: listed apart in the source
binder,measurement,setting,value
H[Aib]HGS[αMeF]TSDVSK[αMeF]LDSRAAQDFVK([AEEA-AEEA-γGlu-C20 diacid])WIANT-NH2 (not fully specified) [Peptide 367],hGLP-1R EC50 (pM); cAMP production,[1],139 pM
same,hGluc-R EC50 (pM); cAMP production,[2],72.4 pM
"H[Aib]QGS[αMeF]TSDVSKK([(PEG)2-(PEG)2-γGlu-Palmitoyl])LDSRAAQD[αMeF]VEWIANT-NH2 [Peptide 402 (of Table 10, position 13)]",hGLP-1R EC50 (pM); cAMP production,[3],1.04 pM
same,hGluc-R EC50 (pM); cAMP production,[4],18.1 pM
H[Aib]HGS[αMeF]TSDVSK[αMeF]LDSR[Aib]AQDFVK([AEEA-AEEA-γGlu-C20 diacid])WIANT-NH2 (N-terminus assumed; SMILES CC[C@H](C)[C@H](NC(=O)[C@H](Cc1c[nH]c2ccccc12)NC(=O)[C@H](CCCCNC(=O)COCCOCCNC(=O)COCCOCCNC(=O)CC[C@H](NC(=O)CCCCCCCCCCCCCCCCCCC(=O)O)C(=O)O)NC(=O)[C@@H](NC(=O)[C@H](Cc1ccccc1)NC(=O)[C@H](CC(=O)O)NC(=O)[C@H](CCC(N)=O)NC(=O)[C@H](C)NC(=O)C(C)(C)NC(=O)[C@H](CCCNC(=N)N)NC(=O)[C@H](CO)NC(=O)[C@H](CC(=O)O)NC(=O)[C@H](CC(C)C)NC(=O)[C@](C)(Cc1ccccc1)NC(=O)[C@H](CCCCN)NC(=O)[C@H](CO)NC(=O)[C@@H](NC(=O)[C@H](CC(=O)O)NC(=O)[C@H](CO)NC(=O)[C@@H](NC(=O)[C@](C)(Cc1ccccc1)NC(=O)[C@H](CO)NC(=O)CNC(=O)[C@H](Cc1c[nH]cn1)NC(=O)C(C)(C)NC(=O)[C@@H](N)Cc1c[nH]cn1)[C@@H](C)O)C(C)C)C(C)C)C(=O)N[C@@H](C)C(=O)N[C@@H](CC(N)=O)C(=O)N[C@H](C(N)=O)[C@@H](C)O) [Peptide 368],hGLP-1R EC50 (pM); cAMP production,[1],186 pM
same,hGluc-R EC50 (pM); cAMP production,[2],290 pM
"H[Aib]QGS[αMeF]TSDK([PEG2′-PEG2′-γGlu-Palmitoyl])SKILDSRAAQD[αMeF]VEWIANT-NH2 [Peptide 396 (of Table 9, position 10)]",hGLP-1R EC50 (pM); cAMP production,[5],0.583 pM
same,hGluc-R EC50 (pM); cAMP production,[6],11.8 pM
"H[Aib]HGS[αMeF]TSDK([AEEA-AEEA-γGlu-C18 diacid])SK[αMeF]LDSRAAQD[αMeF]VQ[Aib]IANT-NH2 (N-terminus assumed; SMILES CC[C@H](C)[C@H](NC(=O)C(C)(C)NC(=O)[C@H](CCC(N)=O)NC(=O)[C@@H](NC(=O)[C@](C)(Cc1ccccc1)NC(=O)[C@H](CC(=O)O)NC(=O)[C@H](CCC(N)=O)NC(=O)[C@H](C)NC(=O)[C@H](C)NC(=O)[C@H](CCCNC(=N)N)NC(=O)[C@H](CO)NC(=O)[C@H](CC(=O)O)NC(=O)[C@H](CC(C)C)NC(=O)[C@](C)(Cc1ccccc1)NC(=O)[C@H](CCCCN)NC(=O)[C@H](CO)NC(=O)[C@H](CCCCNC(=O)COCCOCCNC(=O)COCCOCCNC(=O)CC[C@H](NC(=O)CCCCCCCCCCCCCCCCC(=O)O)C(=O)O)NC(=O)[C@H](CC(=O)O)NC(=O)[C@H](CO)NC(=O)[C@@H](NC(=O)[C@](C)(Cc1ccccc1)NC(=O)[C@H](CO)NC(=O)CNC(=O)[C@H](Cc1c[nH]cn1)NC(=O)C(C)(C)NC(=O)[C@@H](N)Cc1c[nH]cn1)[C@@H](C)O)C(C)C)C(=O)N[C@@H](C)C(=O)N[C@@H](CC(N)=O)C(=O)N[C@H](C(N)=O)[C@@H](C)O) [Peptide 392 (of Table 9, position 10)]",hGLP-1R EC50 (pM); cAMP production,[5],312 pM
same,hGluc-R EC50 (pM); cAMP production,[6],6920 pM
"HSQGS[αMeF]TSDVSKK([AEEA-AEEA-γGlu-γGlu-Stearoyl])LDSQAAQD[αMeF]VE[Aib]LANT-NH2 [Peptide 404 (of Table 10, position 13)]",hGLP-1R EC50 (pM); cAMP production,[3],5.65 pM
same,hGluc-R EC50 (pM); cAMP production,[4],21.8 pM
H[Aib]IGS[αMeF]TSDVSK[αMeF]LDSRAAQDFVK([AEEA-AEEA-γGlu-C18 diacid])WIANT-NH2 (N-terminus assumed; SMILES CC[C@H](C)[C@H](NC(=O)[C@H](Cc1c[nH]c2ccccc12)NC(=O)[C@H](CCCCNC(=O)COCCOCCNC(=O)COCCOCCNC(=O)CC[C@H](NC(=O)CCCCCCCCCCCCCCCCC(=O)O)C(=O)O)NC(=O)[C@@H](NC(=O)[C@H](Cc1ccccc1)NC(=O)[C@H](CC(=O)O)NC(=O)[C@H](CCC(N)=O)NC(=O)[C@H](C)NC(=O)[C@H](C)NC(=O)[C@H](CCCNC(=N)N)NC(=O)[C@H](CO)NC(=O)[C@H](CC(=O)O)NC(=O)[C@H](CC(C)C)NC(=O)[C@](C)(Cc1ccccc1)NC(=O)[C@H](CCCCN)NC(=O)[C@H](CO)NC(=O)[C@@H](NC(=O)[C@H](CC(=O)O)NC(=O)[C@H](CO)NC(=O)[C@@H](NC(=O)[C@](C)(Cc1ccccc1)NC(=O)[C@H](CO)NC(=O)CNC(=O)[C@@H](NC(=O)C(C)(C)NC(=O)[C@@H](N)Cc1c[nH]cn1)[C@@H](C)CC)[C@@H](C)O)C(C)C)C(C)C)C(=O)N[C@@H](C)C(=O)N[C@@H](CC(N)=O)C(=O)N[C@H](C(N)=O)[C@@H](C)O) [Peptide 361],hGLP-1R EC50 (pM); cAMP production,[1],35.7 pM
same,hGluc-R EC50 (pM); cAMP production,[2],23.6 pM

# Source: patent US20230357348A1 (AstraZeneca / MedImmune, published 2023)
